# Where no end group is shown, it is not given here. [ ]: non-standard residue; d: D form.
# What was measured:
# [1] = molecular target: T1, human melanocortin receptor type 1 (MC1r) (human, UniProt Q01726 1-317); test: cell-based or functional assay
# [2] = molecular target: T1, human melanocortin receptor type 1 …
# T1 sequence (Q01726 whole entry): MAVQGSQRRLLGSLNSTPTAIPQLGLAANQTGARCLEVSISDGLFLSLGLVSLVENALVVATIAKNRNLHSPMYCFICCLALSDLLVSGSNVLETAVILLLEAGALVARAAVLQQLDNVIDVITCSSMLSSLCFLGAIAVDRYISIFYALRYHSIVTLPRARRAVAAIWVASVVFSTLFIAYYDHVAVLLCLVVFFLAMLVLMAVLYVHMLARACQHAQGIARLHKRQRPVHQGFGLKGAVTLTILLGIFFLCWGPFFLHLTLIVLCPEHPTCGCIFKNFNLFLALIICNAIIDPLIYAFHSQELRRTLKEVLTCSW
"EC50, cAMP production [1]",IC50 [2],Binder
0.2 nM,0.0645 nM,"α-MSH analogue #1: Ac-(Ac-Lys-Lys-)Lys-Ser-Tyr-Ser-Met-Glu-His-Phe-Arg-Trp-Gly-Lys-Pro-Val-NH2 (Ac-(Ac-Lys-Lys-)Lys-SEQ ID NO:2) (also: bond at chain A 1 to a chain's C-terminus via isopeptide: branch C-terminus to Lys1 ε-amine, Branched peptide) peptide: Ac-KSYSMEHFRWGKPV-NH2 Ac-Lys-Lys"
,0.606 nM,"γ-MSH analogue #2: Ac-(Ac-Lys-Lys-)Lys-Tyr-Val-Met-Gly-His-Phe-Arg-(D-Trp)-Asp-Arg-Phe-Gly-NH2 (D-Trp version of SEQ ID NO:8) (also: bond at chain A 1 to a chain's C-terminus via isopeptide: branch C-terminus to Lys1 ε-amine, Branched peptide; the second chain is the side branch on Lys1) peptide: Ac-KYVMGHFR[dW]DRFG-NH2 Ac-Lys-Lys"

# From patent publication US20150297672A1 (TXP PHARMA, published 2015)
